Data taken from patent US5888763A, “Peptides specific for the first Crk-SH3 domain” (The Rockefeller University, priority 1994, dated 1999).

Experiments:
Assay in all cases: SH3 blot assay with 35S-labeled gst-C3G CB-region
Format in all cases: binding
CrkSH3(N) domain = target: T1, CrkSH3(N) domain (Mus musculus, UniProt Q64010)
T1 construct: probed with 1-2 μg/ml ^35 S-labeled gst-fusion CrkSH3(1) domain; made in house; host or cells: bacteria
Method: (§1) SH3 Blot Assay. […] of gst or equimolar amounts of SH3-fusion proteins were subjected to SDS-PAGE, electroblotted and incubated with […] (70,000 dpm/ml) ^35 S-labeled gst-C3G CB region as described (Feller et al., supra). Filters were exposed over night.

PI3Kp85-a-SH3 domain = target: T2, PI3Kp85-a-SH3 domain (Homo sapiens, UniProt P27986)
T2 construct: The PI3Kp85-a-SH3 domain was a gift of L. Cantley
Method: as §1

[1] = tested on: Grb2, the individual Grb2SH3 domains
Method: as §1

T1 sequence (Q64010 132-192 limits assumed): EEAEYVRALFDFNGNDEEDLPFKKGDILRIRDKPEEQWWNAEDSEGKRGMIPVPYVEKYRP
T2 sequence (P27986 3-79 limits assumed): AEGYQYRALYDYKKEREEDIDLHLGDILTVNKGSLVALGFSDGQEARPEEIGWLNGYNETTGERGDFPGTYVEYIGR

B1: C3G CB-region: C3G region containing all four CB-sequences expressed as 35S-labeled gst-fusion protein (protein)
chain: NSPPPALPPKKRQSAPSPTRVAVVAPMSRATSGSSLPVGINRQDFDVDCYAQRRLSGGSHSYGGESPRLSPCSSIGKLSKSDEQLSSLDRDSGQCSRNTSCETLDHYDPDYEFLQQDLSNADQIPQQTAWNLSPLPESLGESGSPFLGPPFQLPLGGHPQPDGPLAPGQQTDTPPALPKKKRRSAASQTADGSGCRVSYERHPSQYDNISGEDLQSTAPIPSVPYAPFAAILPFQHGGSSAPVEFVGDFTAPESTGDPEKPPPLPEKKQKHMLAYMQLLEDYSEPQPSMFYQTPQNEHIYQQKMKLLMEVYGFSDSFSGVDSVQELAPPPALPPAQRQLEPPAGKDGHPRDPSAVSVVPGKDSRDGSERAPKDP
binding to gst-fusion constructs containing the CrkSH3(N) domain (CrkSH3(N) domain): bound strongly | binding to PI3Kp85-a-SH3 domain (PI3Kp85-a-SH3 domain): only bound weakly | binding to Grb2 and the individual Grb2SH3 domains [1]: only bound weakly
